According to patent US8778880:

How the values were obtained:
[1] = target: human growth hormone receptor on IM-9 cells (human) (UniProt P10912); test: cell-based or functional assay
[2] = target: T1, rat GHR (L43R) on BAF3 cells (clone 2E2-2B12-F4) (rat) (UniProt P16310); test: cell-based or functional assay
T1 sequence (looked up): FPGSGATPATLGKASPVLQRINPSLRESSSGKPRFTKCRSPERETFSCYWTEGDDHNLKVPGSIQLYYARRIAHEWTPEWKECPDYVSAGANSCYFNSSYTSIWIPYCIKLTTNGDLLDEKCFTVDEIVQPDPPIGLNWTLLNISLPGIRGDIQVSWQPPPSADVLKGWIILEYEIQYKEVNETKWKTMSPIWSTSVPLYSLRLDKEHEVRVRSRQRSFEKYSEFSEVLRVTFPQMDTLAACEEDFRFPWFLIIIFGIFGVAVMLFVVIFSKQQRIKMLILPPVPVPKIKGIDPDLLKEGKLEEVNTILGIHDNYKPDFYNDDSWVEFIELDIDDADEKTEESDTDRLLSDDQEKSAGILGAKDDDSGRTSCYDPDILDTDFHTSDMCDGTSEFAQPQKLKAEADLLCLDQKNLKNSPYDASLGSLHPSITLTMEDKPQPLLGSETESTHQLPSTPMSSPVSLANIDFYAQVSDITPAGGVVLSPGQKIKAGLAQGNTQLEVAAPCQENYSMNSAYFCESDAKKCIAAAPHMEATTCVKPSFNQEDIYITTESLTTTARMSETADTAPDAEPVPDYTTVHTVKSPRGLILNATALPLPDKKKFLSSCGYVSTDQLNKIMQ

UniProt P10912, sequence (P10912 19-638): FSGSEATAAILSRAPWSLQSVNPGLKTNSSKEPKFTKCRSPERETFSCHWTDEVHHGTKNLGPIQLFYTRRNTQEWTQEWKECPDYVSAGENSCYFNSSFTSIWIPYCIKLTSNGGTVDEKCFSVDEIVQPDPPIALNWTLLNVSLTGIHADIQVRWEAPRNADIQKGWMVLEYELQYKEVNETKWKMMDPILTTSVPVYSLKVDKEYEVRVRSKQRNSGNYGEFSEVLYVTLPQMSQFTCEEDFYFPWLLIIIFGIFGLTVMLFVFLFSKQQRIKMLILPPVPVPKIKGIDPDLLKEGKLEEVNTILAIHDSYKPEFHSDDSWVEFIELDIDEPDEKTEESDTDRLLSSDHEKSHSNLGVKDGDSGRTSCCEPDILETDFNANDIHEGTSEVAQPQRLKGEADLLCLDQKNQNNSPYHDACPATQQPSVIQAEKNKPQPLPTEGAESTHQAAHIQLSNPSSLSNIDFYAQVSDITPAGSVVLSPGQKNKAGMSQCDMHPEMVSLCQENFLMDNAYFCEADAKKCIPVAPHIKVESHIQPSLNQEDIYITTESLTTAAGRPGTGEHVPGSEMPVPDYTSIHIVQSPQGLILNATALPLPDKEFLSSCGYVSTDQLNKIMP

| Substance | pSTAT5 EC50 (IM-9) (nM (head); WHO hGH expressed as unity) [1] | Proliferation EC50 (BrdU, rat GHR (L43R) BAF3 cells) (nM (head); WHO hGH expressed as unity) [2] |
| --- | --- | --- |
| hGH G131pAF-30KPEG (from UniProt P01241 27-217) (ligand) | 23.8 | 4.6 |
| hGH K145pAF-30KPEG (from UniProt P01241 27-217) (ligand) | 20.6 | 5.3 |
| hGH Y35pAF-40KPEG (from UniProt P01241 27-217) (ligand) | 53.3 | 24 |

Continued, values first:

| pSTAT5 EC50 (IM-9) (nM (head); WHO hGH expressed as unity) [1] | Proliferation EC50 (BrdU, rat GHR (L43R) BAF3 cells) (nM (head); WHO hGH expressed as unity) [2] | Substance |
| --- | --- | --- |
| 5.3 | – | hGH R134pAF-20KPEG (from UniProt P01241 27-217) (ligand) |
| 12.3 | 6.6 | hGH Y143pAF-30KPEG (from UniProt P01241 27-217) (ligand) |
